Experiments:
[1] = tested on: MS2 coat protein; assay: apparent KD of MS2 coat protein; higher = weaker reporter binding; settings: Eterna round: R107
Method: (§1)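 RNA-MaP round R107: designed RNA switches with theophylline, tryptophan, arginine or FMN aptamers are transcribed on-chip within common flanks. They are titrated with SNAP-549-labelled MS2 coat protein in RNA-MaP buffer (100 mM Tris pH 7.5, 80 mM KCl, 4 mM MgCl2), without ligand or with the indicated ligand. Median apparent KD per design.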

[2] = tested on: K4 kissing-loop RNA reporter; assay: apparent KD of K4 kissing-loop reporter; higher = weaker reporter binding; settings: Eterna round: R107;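 also: bound reporter read as fluorescence of individual clusters on recovered sequencing chips by microscopy, with normalized cluster intensities fitted with a binding model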
Method: as §1, with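 “a labelled K4 kissing-loop RNA reporter” for “SNAP-549-labelled MS2 coat protein”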

[3] = input ligand: theophylline 20 uM
[4] = input ligand: theophylline 2 mM
[5] = input ligand: tryptophan 2.4 mM

| Sequence | apparent KD of MS2 coat protein ([1]; input ligand: arginine 13.2 mM) [µM] | apparent KD of MS2 coat protein ([1]; input ligand: none) [µM] | apparent KD of MS2 coat protein [1, 3] [µM] | apparent KD of MS2 coat protein [1, 4] [µM] | apparent KD of MS2 coat protein [1, 5] [µM] | apparent KD of K4 kissing-loop reporter ([2]; input ligand: FMN 200 uM) [µM] | apparent KD of K4 kissing-loop reporter ([2]; input ligand: arginine 13.2 mM) [µM] | apparent KD of K4 kissing-loop reporter ([2]; input ligand: none) [µM] | apparent KD of K4 kissing-loop reporter [2, 3] [µM] | apparent KD of K4 kissing-loop reporter [2, 5] [µM] |
| --- | --- | --- | --- | --- | --- | --- | --- | --- | --- | --- |
| UGAGUUCGCUGAUGGGCUAAGUCAGGUGAUACCAGCCACUCCCGCGGCCCUUGGCAGCACAUGAGGAUCACCCAUGUAGAACUUG [Vexetela] | 0.016 | 0.0184 | 0.0311 | 0.374 | 0.0202 | – | – | – | – | – |
| AACUGGAAAAGUGAUACCAGAGACAUGAGGAUCACCCAUGUACAUGAGGAUCACCCAUGUCUCCCUUGGCAGCACAAAAGGGAGA [Exclusion Theophylline B Gf11] | 0.0161 | – | 0.0376 | – | 0.0245 | – | – | – | – | – |
| UUUUAACAUGAGGAUCACCCAUGUAAUGAUACCAGAGACGAAAGUCUCCCUUGGCAGCAUAUAUCAUUACUCAUAGGAAACUAUG [Theophylline A 6] | 0.0354 | – | 0.0235 | – | 0.0136 | – | – | – | – | – |
| UAUCGUCAGACGGCCGCCACUAGAACAUGAGGAUCACCCAUGUACGGCCGCCCGGUGUGAUCCACUAGGACCGGGUCUGACGAAU [(Trp1)-(Ms2)-(T)'-(M)'-(Trp2)_Design23] | 0.0393 | 0.0668 | 0.0779 | 0.0957 | 0.0538 | – | – | – | – | – |
| AAUAACAUGAGGAUCACCCAUGUAAAAGAUACCAGAGUGAUGAUCCUCCCUUGGCAGCUUAAUAACGCUAUUGGAAACAAUAGCG [Mat - Same State Theophlline A - Mod of Eli - D7] | 0.0349 | – | 0.158 | – | 0.059 | – | – | – | – | – |
| AAGGUGAUCCCAGAUACCAGCUUAACAUGAGGAUCACCCAUGUUUGGGACGAAAGUCCCGGGCCCUUGGCAGCUGGGUUGCCAAG [SSTheo B #18] | 0.0619 | – | 0.402 | – | 0.174 | – | – | – | – | – |
| GUCGCUGAGGGAAGGAGCGUGAAGACAUGAGGAUCACCCAUGUAGAGGCGCCGAAGGCGUUCGCAGGUAGGUCGCCCUCAGUGAA [#1 Same State - Arginine B Attempt #25 (HarryS)] | 0.0124 | 0.0141 | 0.0221 | 0.0161 | 0.0151 | – | – | – | – | – |
| ACGAACGAUAGUGAUACCAGACGUACAUGAGGAUCACCCAUGUUGUAAACAUGGUUAAUAGUCCCUUGGCAGCACGAUAAGUUCG [JR_ExcTheophyB_Sub003] | 0.104 | – | 0.53 | – | 0.802 | – | – | – | – | – |
| AGACAUGAGGAUCACCCAUGUAGUAUGGAUACCAGAUCCAGAUUUAUCCCUUGGCAGCUGUGGUACAGCGUUGGAUCGCUCCUAG [Exclusion - Theophylline A (Freestyle 12)] | 0.0223 | – | 0.0346 | – | 0.0278 | – | – | – | – | – |
| UUCAAAGGGAACGGUGCUGGUGACAGAGAUACCAGAGUAGUAAUACUCCCUUGGCAGCUCAGAACAUGAGGAUCACCCAUGUAAU [Exclusion Theophylline A GF22] | 0.0185 | 0.018 | 0.0291 | 0.0592 | 0.0176 | – | – | – | – | – |
| CAGUGAGAGUCGGCCGCCACUUAACGCAAGUAGCGCAACCCAAAACAUGAGGAUCACCCAUGUCGAAGGACCGGGACAAUGAGCG [theeternabot_sameState_MS2_Trp_B_47] | 0.0115 | – | 0.0167 | 0.0117 | – | – | – | – | – | – |
| UACUUGCUGACGGCCGCCACUAGAACAUGAGGAUCACCCAUGUAUGGCGGCCGAAUCCUCAUGACUAGGACCGGGUCAGCAAGAU [(Trp1)-(Ms2)-(T)'-(M)'-(Trp2)_Design2] | 0.00818 | 0.00809 | 0.0125 | 0.00875 | 0.00822 | – | – | – | – | – |
| UAGCAUAGUACGGCCGCCACUCCUGGUUCCCGGCCGUGUGUAAGACAUGAGGAUCACCCAUGUAGGAGGACCGGGUAUCGCUUGC [theeternabot_sameState_MS2_Trp_B_22] | 0.0125 | – | 0.0202 | 0.0156 | – | – | – | – | – | – |
| ACAUGAGGAUCACCCAUGUAAAUCCUCGAUACCAGCCAAAGGAGAGGCCCUUGGCAGCGGAAAGGCCGGGUAUAAAUGUCCGGCC | 0.0716 | – | 0.151 | – | 0.125 | – | – | – | – | – |
| ACAUGAGGAUCACCCAUGUUAUUUACCGAAGGAGCGGGUAUAUACCCAGGUAGGUCGCGGACAACAUGAGGAUCACCCACAUGAG [AstrosSSArgA#21] | 0.0455 | 0.0285 | 0.0534 | 0.0714 | 0.0278 | – | – | – | – | – |
| UAACGGCACUGAAGGAGCGAGUUGACAAACAUGAGGAUCACCCAUGUUAUGGGUUGUUAAUCUCAGGUAGGUCGCAGUUGUCGUA [Same State Arginine B GF 20] | 0.129 | 0.348 | 0.387 | 0.511 | 0.365 | – | – | – | – | – |
| UAUCUUGCGGGCGCCCGCAAGGUUGCGGAUACCAGCGAGAUAAAUCGCCCUUGGCAGCCGAACAUGAGGAUCACCCAUGUCGGAC [Same State - Theophylline A Attempt #1 (HarryS)] | 0.00794 | – | 0.0118 | – | 0.00987 | – | – | – | – | – |
| UACCUUAACACGGCCGCCACUCUCUAAUAGGAUCAUGGUACCGCACAUGAGGAUCACCCAUGUUUGAGGACCGGGUGUUAUGAAG [theeternabot_sameState_MS2_Trp_B_24] | 0.0148 | – | 0.025 | 0.0202 | – | – | – | – | – | – |

| Sequence | apparent KD of MS2 coat protein ([1]; input ligand: arginine 13.2 mM) [µM] | apparent KD of MS2 coat protein ([1]; input ligand: none) [µM] | apparent KD of MS2 coat protein [1, 3] [µM] | apparent KD of MS2 coat protein [1, 4] [µM] | apparent KD of MS2 coat protein [1, 5] [µM] | apparent KD of K4 kissing-loop reporter ([2]; input ligand: FMN 200 uM) [µM] | apparent KD of K4 kissing-loop reporter ([2]; input ligand: arginine 13.2 mM) [µM] | apparent KD of K4 kissing-loop reporter ([2]; input ligand: none) [µM] | apparent KD of K4 kissing-loop reporter [2, 3] [µM] | apparent KD of K4 kissing-loop reporter [2, 5] [µM] |
| --- | --- | --- | --- | --- | --- | --- | --- | --- | --- | --- |
| AGCUCGCGAAAGCGAGCAACAUGAUCCGAAGGAGCGGGCGAAAGCCCAGGUAGGUCGCGGACAUGAGGAUCACCCAUGUCUCCUU [MAT - Exclusion Arginine A - Mod of Eli - D13] | 0.041 | 0.0709 | 0.0884 | 0.0948 | 0.077 | – | – | – | – | – |
| ACUUCAUGAGGUGAUACCAGCCAAUGACAUGAGGACAUGAGGAUCACCCAUGUUUAUGUAGGCCCUUGGCAGCAUUGUAACAUGA [Same State Theophylline B 4] | 0.101 | – | 0.126 | – | 0.0284 | – | – | – | – | – |
| UGUCAGCGAAAGUUGACAUGUCUUACCGGUCGAGGACCGGUACGGCCGCCACUCGAUCACUCGCACAUGAGGAUCACCCAUGUUG [SS Tryp A #21] | 0.0211 | – | 0.0246 | 0.0238 | – | – | – | – | – | – |
| AGAACUUUGGUGGAUACCAGCUUCUGGCCAUCCUUCAAAUACAUGAGGAUCACCCAUGUUAGCCCUUGGCAGCCAACAUAGACUG [theeternabot_exclusion_MS2_Theo_B_44] | 0.0217 | – | 0.033 | – | 0.0216 | – | – | – | – | – |
| CAGAACAUGAGGAUCACCCAUGUCAGGGAUACCAGCUCAGACAUGGGCCCUUGGCAGCUCUGUGGCUGACGAAAGUCAGCAUCUG [#17 SameState-TheophyllineA] | 0.0175 | – | 0.109 | – | 0.0195 | – | – | – | – | – |
| ACUAGUUGUGCAGAUACCAGACAUGAGGAUCACCCAUGUUUGGGAUGUUCGCAUCUUCCUGUCCCUUGGCAGCUGUACAUCUAGA [Omei Theo B Exc v4] | 0.0609 | – | 0.145 | – | 0.0862 | – | – | – | – | – |
| ACUAGUUGUGCAGAUACCAGACAUGAGGAUCACCCAUGUUUGGGAUCUUCGGAUCUUCCUGUCCCUUGGCAGCUGUACAUCUAGA [Omei Theo B Exc v3] | 0.0626 | – | 0.178 | – | 0.125 | – | – | – | – | – |
| GUGUAGAAGUGAGGAUAUCGAUUUAAGAAUAAGCAGUGAUGUUGCAAGCAGGAGGAAUAAGAUUAACGAGAAGGCGUGGAUAUAG [FMN B Exclusion; Euphoria Solution] | – | – | – | – | – | 0.104 | 0.11 | 0.125 | 0.141 | 0.0991 |
| UGGGAUGUUAAAGGAUAUAGCAAGUGAUAUAAGAAAGUGAGUGAUGUUGAUGUAGGUGAUGAUAUGUUAGAAGGUUAACAAAACG [abcdefg] | – | – | – | – | – | 0.35 | 0.217 | 0.356 | 0.294 | 0.257 |
| GAGGCCAAACGGAGUGAUGUUUCGUAUGAUACCAGCAGCGAAAGCUGCCCUUGGCAGCAUGCCACGGCCUCGGCAGGAAACUGCC | – | – | – | – | – | 0.401 | 0.322 | 0.358 | 0.371 | 0.339 |
| AAGCAGUCACUCAAAGCCAUCGAAGAUGGUCGAGGACCGGUACGGCCGCCACUCGGAGUGAUGUUCCGAAGACUGCAAAAUAAAA | – | – | – | – | – | 0.407 | 0.394 | 0.424 | 0.411 | 0.346 |
| UAAUAUACGAGUGAUGUUCGUUAUUUAUCAGAGGAUAUGCUUAAAUGCAGAAGGCUGUUUUUCUAAUUGAUAUUAAAUUUUUUUA [JR_Nu_ExcFMNA_Sub028] | – | – | – | – | – | 0.0772 | 0.0901 | 0.074 | 0.0897 | 0.0633 |
| AAAAUAAUCCAGUGAUGUUGGUAUCCAGAUACCAGCCAGGAAACUGGCCCUUGGCAGCUGUGGACGUACAAAAUAAGUACGUCCU [#OpenEnded 10 #StaticStem #K4Early] | – | – | – | – | – | 0.481 | 0.268 | 0.464 | 0.611 | 0.355 |
| CCGGGCGGCCGAAGGAGCGGGCGGACCCGAGUGAUGUUCGGGUGGACCGUGAGGUCCGGUGCCCAGGUAGGUCGCGGUUCCGCCC [#2 Same State - Arginine B Attempt #5 (HarryS)] | – | – | – | – | – | 0.117 | 0.123 | 0.129 | 0.118 | 0.12 |
| ACGCUGUGAAUAACACAGCGAAUAAAUUCGCGAGGACCGGUACGGCCGCCACUCGCUAACUGCGAGUGAUGUUCGAUAAUAAAAU [Mat - Mod of OpenEnded 3 - D13] | – | – | – | – | – | 0.176 | 0.0808 | 0.172 | 0.201 | 0.0911 |
| UGAUUUAACUGAAGGAGCGGCAAUUGAUAAGUAAAUAUAGUGAUGUUAUAUAAGAUAGAGAGCCAGGUAGGUCGCAGAGGUAGGA [ExArgB.K] | – | – | – | – | – | 0.193 | 0.139 | 0.152 | 0.178 | 0.127 |
| AUUAAUAUCACGGCCGCCACUGAAUAUUGUUUUUAUAUUUAGAAUAAUUGCCAGUGAUGUUGGAUCAGGACCGGGUGAUUUUAUA [JR_SSTryptoB_Sub008] | – | – | – | – | – | 0.775 | 0.489 | 0.727 | 0.739 | 0.36 |
| AGGGUUUAGGACGAUACCAGCCUGGAGGCCAGUGAUGUUGGCCGAUUUGAACAGAAUUAAGGCCCUUGGCAGCGUAUCUAAAACC [Esamaza] | – | – | – | – | – | 0.28 | 0.291 | 0.32 | 0.161 | 0.259 |

— the supplement of paper PMC9170038
